Measured values as given in patent US20090182306A1, “Microneedle Devices and Methods of Drug Delivery or Fluid Withdrawal” (Georgia Tech Research Corporation, priority 2006, published 2009).

Legend:
[1] = Lysozyme enzymatic activity (EnzCheck lysozyme assay kit) after encapsulation and storage; format: biochemical
Method: Enzymatic activity of lysozyme encapsulated within CMC microneedle devices was tested with EnzCheck lysozyme assay kit (Molecular Probes). Microneedle devices weighing 5 mg that contained lysozyme encapsulated at a concentration of 5 wt % were completely dissolved in PBS at room temperature for 10 min. PBS was added to dilute each sample to 0.05 μg/ml lysozyme and 0.95 μg/ml CMC. Lysozyme activity was assayed using 1 ml solution samples for: (1) untreated lysozyme, (2) untreated lysozyme (0.05 μg) and CMC hydrogel (0.95 μg) mixed, and dissolved together, (3) lysozyme encapsulated in microneedles that were dissolved 1 h after fabrication, and (4) lysozyme encapsulated in microneedles that were dissolved after 60 days of storage at ambient conditions.

[2] = Lysozyme secondary structure by circular dichroism after encapsulation and storage; format: physicochemical
Method: The secondary structure of the model drug lysozyme was examined by spectropolarimetry (JASCO, J-810, Tokyo, Japan) after encapsulation and release from dissolving microneedles produced in accordance with Example 3. CMC pyramidal microneedle devices weighing 5 mg that encapsulated lysozyme at a mass fraction of 5 wt % were completely dissolved in […] PBS at room temperature for 10 min and filtered by centrifugal filtration (Centricon YM-50, Millipore, Bedford, Mass., USA) at 1000×g and room temperature for 10 min to isolate lysozyme (14.3 kDa) from the dissolved CMC matrix material (90 kDa average molecular mass). After determining lysozyme concentration, PBS was added to dilute the lysozyme to 20 μg/ml. CD spectra were taken for (1) untreated lysozyme, (2) lysozyme encapsulated in microneedles that were dissolved 1 h after fabrication, (3) lysozyme encapsulated in microneedles that were dissolved after 60 days of storage at ambient conditions (23±2° C. and 38±5% relative humidity), and (4) lysozyme thermally treated at 80° C. for 30 min to cause irreversible denaturation.

[3] = In vivo delivery of human growth hormone in hairless rats; conditions: subcutaneous injection of 196 μg
Method: Microneedle devices were prepared as described in Example 3. The microneedles and base substrate were both made of CMC and, in some cases, 50% trehalose was included in the formulation too. Human growth hormone (Pfizer) was added to the microneedles at a content of 191-249 μg per 100-needle array. The ratio of growth hormone to matrix material (i.e., CMC or CMC plus trehalose) was 1 to 9. Microneedles were inserted into the skin of hairless rats (Charles River Laboratories). The microneedles inserted easily by hand and were left in place for 24 hours. Minimal skin irritation was seen after microneedle use. A positive control group was included, in which rats received subcutaneous injection of 196 μg of human growth hormone. Blood was drawn periodically and assayed using an ELISA kit specific for human growth hormone without cross-reactivity with rat growth hormone (Diagnostic Systems Laboratories, Webster, Tex.).

Row | Substance | loss of enzymatic activity compared to untreated enzyme ([1]; encapsulated in microneedles, dissolved in PBS) | retained enzymatic activity ([1]; released from microneedles after two months of storage) [%] | change in lysozyme activity ([1]; untreated lysozyme mixed with dissolved CMC microneedle containing no lysozyme) | protein structure (CD) ([2]; after storage of microneedle patches for 2 months at room temperature) | change in protein secondary structure (CD) ([2]; encapsulated in microneedle patch, then released by dissolution, versus untreated lysozyme) | secondary structure (CD), positive control ([2]; thermally treated at 80° C. for 30 min) | time of serum concentration peak [3]
1 | lysozyme: model drug (14.3 kDa) encapsulated at 5 wt % in CMC microneedle devices | no loss of enzymatic activity | 96 | no change in lysozyme activity | unchanged | no detectable change | extensive degradation of secondary structure | 
2 | growth hormone: Human growth hormone (Pfizer) |  |  |  |  |  |  | within about one hour
